Laboratory results: the supplement of paper PMC10065799, “High-throughput profiling of sequence recognition by tyrosine kinases and SH2 domains using bacterial peptide display” (eLife, 2023)
Values belong to the sequence of their own block, whether it stands above or below them.

Assays:
Grb2 SH2 = Grb2 SH2 (UniProt P62993); assay: SH2 binding enrichment of the phosphorylated peptide, bacterial display (enrichment ratio); higher = better substrate or ligand; peptides without Tyr show the background
c-Src SH2 = assay: as above
SHP2-C SH2 = assay: as above
Fes = Fes (UniProt P07332); assay: phosphorylation enrichment, bacterial display (enrichment ratio); higher = better substrate or ligand; peptides without Tyr show the background
Fes, sequence (P07332 whole entry, looked up): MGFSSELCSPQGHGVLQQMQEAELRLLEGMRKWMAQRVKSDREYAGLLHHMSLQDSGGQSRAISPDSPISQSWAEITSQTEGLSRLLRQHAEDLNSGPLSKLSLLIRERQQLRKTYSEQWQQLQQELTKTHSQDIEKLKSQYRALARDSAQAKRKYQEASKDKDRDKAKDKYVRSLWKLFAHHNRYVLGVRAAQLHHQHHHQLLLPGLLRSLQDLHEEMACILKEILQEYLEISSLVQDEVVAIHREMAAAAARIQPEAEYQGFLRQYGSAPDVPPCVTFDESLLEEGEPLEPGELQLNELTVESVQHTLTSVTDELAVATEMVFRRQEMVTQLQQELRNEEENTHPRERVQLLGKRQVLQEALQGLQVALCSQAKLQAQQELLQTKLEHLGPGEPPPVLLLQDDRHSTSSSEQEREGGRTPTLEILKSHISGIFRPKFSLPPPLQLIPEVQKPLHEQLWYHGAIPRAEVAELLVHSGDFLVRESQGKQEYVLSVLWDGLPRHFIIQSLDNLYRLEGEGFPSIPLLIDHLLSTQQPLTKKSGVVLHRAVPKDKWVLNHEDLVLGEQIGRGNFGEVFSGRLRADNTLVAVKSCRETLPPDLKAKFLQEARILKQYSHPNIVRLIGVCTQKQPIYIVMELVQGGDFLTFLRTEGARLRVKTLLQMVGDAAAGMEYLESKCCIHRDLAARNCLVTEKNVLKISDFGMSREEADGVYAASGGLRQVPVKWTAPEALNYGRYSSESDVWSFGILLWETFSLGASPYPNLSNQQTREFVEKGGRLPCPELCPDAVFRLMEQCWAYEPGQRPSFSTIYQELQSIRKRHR

c-Abl (mouse) = assay: as above
MERTK = MERTK (UniProt Q12866); assay: as above
MERTK, sequence (Q12866 whole entry, looked up): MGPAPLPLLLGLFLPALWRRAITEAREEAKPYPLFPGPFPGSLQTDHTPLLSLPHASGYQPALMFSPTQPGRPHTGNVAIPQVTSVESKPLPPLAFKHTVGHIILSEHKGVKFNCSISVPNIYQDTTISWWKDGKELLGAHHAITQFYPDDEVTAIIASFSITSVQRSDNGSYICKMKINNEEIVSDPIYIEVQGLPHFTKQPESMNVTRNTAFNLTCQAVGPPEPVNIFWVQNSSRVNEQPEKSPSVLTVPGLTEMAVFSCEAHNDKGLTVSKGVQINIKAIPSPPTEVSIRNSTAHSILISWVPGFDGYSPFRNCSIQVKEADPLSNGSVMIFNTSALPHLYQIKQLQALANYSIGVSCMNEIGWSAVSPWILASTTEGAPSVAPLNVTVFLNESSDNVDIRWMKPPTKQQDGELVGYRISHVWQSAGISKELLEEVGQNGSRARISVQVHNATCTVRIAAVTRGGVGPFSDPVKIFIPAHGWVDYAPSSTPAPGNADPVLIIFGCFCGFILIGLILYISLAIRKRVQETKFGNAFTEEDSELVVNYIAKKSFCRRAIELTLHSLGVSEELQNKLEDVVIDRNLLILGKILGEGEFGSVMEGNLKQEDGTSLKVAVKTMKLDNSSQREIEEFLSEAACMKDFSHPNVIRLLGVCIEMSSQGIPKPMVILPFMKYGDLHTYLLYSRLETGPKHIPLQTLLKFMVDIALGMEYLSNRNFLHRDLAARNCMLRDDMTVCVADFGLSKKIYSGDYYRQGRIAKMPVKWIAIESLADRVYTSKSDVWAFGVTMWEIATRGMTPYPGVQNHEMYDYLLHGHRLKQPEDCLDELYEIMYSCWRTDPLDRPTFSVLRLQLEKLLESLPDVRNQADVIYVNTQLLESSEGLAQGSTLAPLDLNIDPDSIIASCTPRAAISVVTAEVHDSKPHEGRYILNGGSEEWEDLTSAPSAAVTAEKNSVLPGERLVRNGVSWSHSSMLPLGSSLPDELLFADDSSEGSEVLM

Jak2 = Jak2 (UniProt O60674); assay: as above
Hck = Hck (UniProt P08631); assay: as above
Hck, sequence (P08631 whole entry, looked up): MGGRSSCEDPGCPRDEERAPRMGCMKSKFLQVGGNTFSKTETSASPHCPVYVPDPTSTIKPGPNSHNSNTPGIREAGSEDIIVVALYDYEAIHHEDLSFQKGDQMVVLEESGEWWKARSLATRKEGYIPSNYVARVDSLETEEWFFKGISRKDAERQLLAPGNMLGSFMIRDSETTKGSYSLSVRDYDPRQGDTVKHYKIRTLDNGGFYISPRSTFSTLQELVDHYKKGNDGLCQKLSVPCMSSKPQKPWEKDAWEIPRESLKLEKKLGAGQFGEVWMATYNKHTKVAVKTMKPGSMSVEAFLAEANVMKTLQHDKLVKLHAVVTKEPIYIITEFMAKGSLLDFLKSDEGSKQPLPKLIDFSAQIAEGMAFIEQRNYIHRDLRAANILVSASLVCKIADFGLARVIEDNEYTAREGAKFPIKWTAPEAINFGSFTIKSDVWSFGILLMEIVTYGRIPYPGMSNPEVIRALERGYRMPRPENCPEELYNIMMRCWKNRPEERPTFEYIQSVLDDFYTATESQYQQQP

Fyn = Fyn (UniProt P06241); assay: as above
FGFR1 = FGFR1 (UniProt P11362); assay: as above
FGFR1, sequence (P11362 whole entry, looked up): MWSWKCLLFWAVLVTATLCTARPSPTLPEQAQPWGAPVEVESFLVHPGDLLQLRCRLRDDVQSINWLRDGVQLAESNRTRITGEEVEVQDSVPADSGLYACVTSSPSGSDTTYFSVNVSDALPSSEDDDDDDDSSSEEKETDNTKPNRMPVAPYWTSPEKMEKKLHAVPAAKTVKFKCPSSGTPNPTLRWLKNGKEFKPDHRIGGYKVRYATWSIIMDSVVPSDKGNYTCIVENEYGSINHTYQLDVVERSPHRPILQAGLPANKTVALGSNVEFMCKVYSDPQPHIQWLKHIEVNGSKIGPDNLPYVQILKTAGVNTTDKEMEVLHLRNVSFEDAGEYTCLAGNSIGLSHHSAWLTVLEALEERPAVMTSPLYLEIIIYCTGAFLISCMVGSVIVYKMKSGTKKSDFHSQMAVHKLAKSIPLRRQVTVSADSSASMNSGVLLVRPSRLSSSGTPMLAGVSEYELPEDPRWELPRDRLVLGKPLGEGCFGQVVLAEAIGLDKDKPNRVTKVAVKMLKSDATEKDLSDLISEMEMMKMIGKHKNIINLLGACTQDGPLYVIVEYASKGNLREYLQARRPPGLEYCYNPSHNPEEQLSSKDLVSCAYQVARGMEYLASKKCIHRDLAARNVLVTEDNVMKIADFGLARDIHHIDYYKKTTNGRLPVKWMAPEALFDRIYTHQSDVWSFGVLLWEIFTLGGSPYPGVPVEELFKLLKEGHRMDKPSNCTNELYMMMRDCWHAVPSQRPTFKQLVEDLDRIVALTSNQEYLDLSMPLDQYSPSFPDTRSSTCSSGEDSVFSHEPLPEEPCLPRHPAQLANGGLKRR

AncSZ = assay: as above
EPHB1 = EPHB1 (UniProt P54762); assay: as above
EPHB1, sequence (P54762 whole entry, looked up): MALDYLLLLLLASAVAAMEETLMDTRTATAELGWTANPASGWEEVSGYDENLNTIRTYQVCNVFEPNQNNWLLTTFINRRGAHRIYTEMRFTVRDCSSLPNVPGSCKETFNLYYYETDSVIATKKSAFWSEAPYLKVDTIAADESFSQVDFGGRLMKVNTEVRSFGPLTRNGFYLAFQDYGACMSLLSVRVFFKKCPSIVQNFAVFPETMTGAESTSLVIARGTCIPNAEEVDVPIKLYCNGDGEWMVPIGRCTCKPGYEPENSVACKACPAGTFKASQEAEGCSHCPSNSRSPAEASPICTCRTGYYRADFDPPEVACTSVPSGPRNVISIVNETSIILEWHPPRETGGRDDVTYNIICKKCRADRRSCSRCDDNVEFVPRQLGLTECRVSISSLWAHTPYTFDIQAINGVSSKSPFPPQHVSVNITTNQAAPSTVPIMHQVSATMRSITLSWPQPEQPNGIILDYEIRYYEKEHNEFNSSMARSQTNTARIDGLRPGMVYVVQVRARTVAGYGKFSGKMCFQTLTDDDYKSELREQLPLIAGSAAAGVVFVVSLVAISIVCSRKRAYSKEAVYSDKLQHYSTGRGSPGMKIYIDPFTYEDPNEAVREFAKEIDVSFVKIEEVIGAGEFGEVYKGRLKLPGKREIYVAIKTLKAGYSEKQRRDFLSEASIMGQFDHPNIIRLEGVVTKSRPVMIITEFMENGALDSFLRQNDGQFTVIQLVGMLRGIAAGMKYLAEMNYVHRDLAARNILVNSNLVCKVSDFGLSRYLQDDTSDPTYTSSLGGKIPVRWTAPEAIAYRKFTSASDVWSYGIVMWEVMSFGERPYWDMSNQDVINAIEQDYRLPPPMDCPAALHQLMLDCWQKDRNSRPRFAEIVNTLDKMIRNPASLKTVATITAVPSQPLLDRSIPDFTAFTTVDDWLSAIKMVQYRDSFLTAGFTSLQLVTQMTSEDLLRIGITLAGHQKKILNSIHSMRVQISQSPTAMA

EPHB2 = EPHB2 (UniProt P29323); assay: as above
c-Src = assay: as above
FGFR3 = FGFR3 (UniProt P22607); assay: as above
FGFR3, sequence (P22607 whole entry, looked up): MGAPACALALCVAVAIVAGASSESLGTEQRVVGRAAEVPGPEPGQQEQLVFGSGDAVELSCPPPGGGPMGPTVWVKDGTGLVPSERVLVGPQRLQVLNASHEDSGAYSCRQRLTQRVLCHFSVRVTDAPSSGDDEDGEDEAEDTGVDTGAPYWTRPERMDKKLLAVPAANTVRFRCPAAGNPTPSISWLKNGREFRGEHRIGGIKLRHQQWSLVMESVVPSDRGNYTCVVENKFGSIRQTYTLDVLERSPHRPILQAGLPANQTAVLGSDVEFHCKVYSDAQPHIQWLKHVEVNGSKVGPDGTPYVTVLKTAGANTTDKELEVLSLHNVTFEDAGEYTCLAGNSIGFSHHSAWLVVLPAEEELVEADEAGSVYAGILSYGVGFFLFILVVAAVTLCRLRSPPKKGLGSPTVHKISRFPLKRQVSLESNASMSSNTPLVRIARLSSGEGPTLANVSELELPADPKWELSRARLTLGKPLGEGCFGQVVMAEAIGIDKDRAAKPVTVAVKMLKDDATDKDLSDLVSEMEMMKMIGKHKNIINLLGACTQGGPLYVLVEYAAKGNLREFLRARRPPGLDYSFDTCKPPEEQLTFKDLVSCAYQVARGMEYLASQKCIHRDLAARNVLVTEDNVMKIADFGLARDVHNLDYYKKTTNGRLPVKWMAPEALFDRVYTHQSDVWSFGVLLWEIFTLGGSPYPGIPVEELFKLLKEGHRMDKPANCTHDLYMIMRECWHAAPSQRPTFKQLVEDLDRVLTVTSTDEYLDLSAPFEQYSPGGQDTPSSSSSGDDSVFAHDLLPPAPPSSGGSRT

Fer (mouse) = assay: as above
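For SH2 binding enrichment of the phosphorylated peptide, bacterial display in this document: peptide library displayed on the E. coli surface as eCPX fusions, selected cells deep-sequenced, score is each peptide's frequency after selection divided by its frequency in the input.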
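For phosphorylation enrichment, bacterial display in this document: 11-residue human phosphosite peptides and single-mutation variants displayed on the E. coli surface, counted by deep sequencing, each peptide's frequency after selection divided by its frequency in the unselected input library; frequency after pTyr selection over input frequency; kinase dosed for 20-30% of maximal phosphorylation in three min.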

SH2 binding enrichment (Grb2 SH2): 0.886
SH2 binding enrichment (c-Src SH2): 0.555
SH2 binding enrichment (SHP2-C SH2): 0.727
Sequence: NQDRTYFESVR [SPEN_Y632_YF]
phosphorylation enrichment (Fes): 0.931
phosphorylation enrichment (c-Abl (mouse)): 0.618
phosphorylation enrichment (MERTK): 0.469
phosphorylation enrichment (Jak2): 0.865
phosphorylation enrichment (Hck): 0.573
phosphorylation enrichment (Fyn): 0.571
phosphorylation enrichment (FGFR1): 0.602
phosphorylation enrichment (AncSZ): 0.852
phosphorylation enrichment (EPHB1): 0.507
phosphorylation enrichment (EPHB2): 0.617
phosphorylation enrichment (c-Src): 0.678
phosphorylation enrichment (FGFR3): 0.69
phosphorylation enrichment (Fer (mouse)): 0.665

SH2 binding enrichment (Grb2 SH2): 0.786
SH2 binding enrichment (c-Src SH2): 0.488
SH2 binding enrichment (SHP2-C SH2): 0.696
Sequence: GAALAYGLDKS [HSPA9_Y230_A225G]
phosphorylation enrichment (Fes): 0.637
phosphorylation enrichment (c-Abl (mouse)): 0.487
phosphorylation enrichment (MERTK): 0.306
phosphorylation enrichment (Jak2): 0.493
phosphorylation enrichment (Hck): 0.402
phosphorylation enrichment (Fyn): 0.483
phosphorylation enrichment (FGFR1): 0.389
phosphorylation enrichment (AncSZ): 0.529
phosphorylation enrichment (EPHB1): 0.337
phosphorylation enrichment (EPHB2): 0.515
phosphorylation enrichment (c-Src): 0.415
phosphorylation enrichment (FGFR3): 0.474
phosphorylation enrichment (Fer (mouse)): 0.411

SH2 binding enrichment (Grb2 SH2): 0.827
SH2 binding enrichment (c-Src SH2): 0.532
SH2 binding enrichment (SHP2-C SH2): 0.315
Sequence: PESCLYKESWI [IQGAP2_Y630_L635I]
phosphorylation enrichment (Fes): 1.97
phosphorylation enrichment (c-Abl (mouse)): 1.48
phosphorylation enrichment (MERTK): 0.6
phosphorylation enrichment (Jak2): 1.54
phosphorylation enrichment (Hck): 0.872
phosphorylation enrichment (Fyn): 0.493
phosphorylation enrichment (FGFR1): 1.25
phosphorylation enrichment (AncSZ): 1.18
phosphorylation enrichment (EPHB1): 0.931
phosphorylation enrichment (EPHB2): 1.2
phosphorylation enrichment (c-Src): 0.825
phosphorylation enrichment (FGFR3): 1.17
phosphorylation enrichment (Fer (mouse)): 1.26

SH2 binding enrichment (Grb2 SH2): 1.17
SH2 binding enrichment (c-Src SH2): 3.98
SH2 binding enrichment (SHP2-C SH2): 5.95
Sequence: YFVVEYRDQKP [MUC17_Y4332]
phosphorylation enrichment (Fes): 1.66
phosphorylation enrichment (c-Abl (mouse)): 0.788
phosphorylation enrichment (MERTK): 4.97
phosphorylation enrichment (Jak2): 3.02
phosphorylation enrichment (Hck): 0.589
phosphorylation enrichment (Fyn): 0.786
phosphorylation enrichment (FGFR1): 13.8
phosphorylation enrichment (AncSZ): 2.1
phosphorylation enrichment (EPHB1): 1.23
phosphorylation enrichment (EPHB2): 0.909
phosphorylation enrichment (c-Src): 0.728
phosphorylation enrichment (FGFR3): 12.1
phosphorylation enrichment (Fer (mouse)): 0.75

SH2 binding enrichment (Grb2 SH2): 0.77
SH2 binding enrichment (c-Src SH2): 0.422
SH2 binding enrichment (SHP2-C SH2): 0.344
Sequence: HESEIYGKVCY [CSRP3_Y57_C58G]
phosphorylation enrichment (Fes): 1.32
phosphorylation enrichment (c-Abl (mouse)): 2.81
phosphorylation enrichment (MERTK): 1.08
phosphorylation enrichment (Jak2): 1.31
phosphorylation enrichment (Hck): 5.92
phosphorylation enrichment (Fyn): 8.66
phosphorylation enrichment (FGFR1): 0.612
phosphorylation enrichment (AncSZ): 1.36
phosphorylation enrichment (EPHB1): 0.828
phosphorylation enrichment (EPHB2): 0.968
phosphorylation enrichment (c-Src): 6.37
phosphorylation enrichment (FGFR3): 0.808
phosphorylation enrichment (Fer (mouse)): 8.63

SH2 binding enrichment (Grb2 SH2): 0.99
SH2 binding enrichment (c-Src SH2): 0.68
SH2 binding enrichment (SHP2-C SH2): 0.762
Sequence: KNITEYCRDLI [RECQL_Y492]
phosphorylation enrichment (Fes): 1.05
phosphorylation enrichment (c-Abl (mouse)): 0.66
phosphorylation enrichment (MERTK): 0.397
phosphorylation enrichment (Jak2): 0.791
phosphorylation enrichment (Hck): 0.471
phosphorylation enrichment (Fyn): 0.477
phosphorylation enrichment (FGFR1): 0.476
phosphorylation enrichment (AncSZ): 0.877
phosphorylation enrichment (EPHB1): 0.544
phosphorylation enrichment (EPHB2): 0.606
phosphorylation enrichment (c-Src): 0.42
phosphorylation enrichment (FGFR3): 0.691
phosphorylation enrichment (Fer (mouse)): 0.502

SH2 binding enrichment (Grb2 SH2): 1.78
SH2 binding enrichment (c-Src SH2): 1.65
SH2 binding enrichment (SHP2-C SH2): 1.25
Sequence: CRPPYYHRNCM [HGD_Y334_F329C]
phosphorylation enrichment (Fes): 0.856
phosphorylation enrichment (c-Abl (mouse)): 0.743
phosphorylation enrichment (MERTK): 0.515
phosphorylation enrichment (Jak2): 0.992
phosphorylation enrichment (Hck): 0.761
phosphorylation enrichment (Fyn): 0.565
phosphorylation enrichment (FGFR1): 0.617
phosphorylation enrichment (AncSZ): 0.837
phosphorylation enrichment (EPHB1): 0.436
phosphorylation enrichment (EPHB2): 0.556
phosphorylation enrichment (c-Src): 0.452
phosphorylation enrichment (FGFR3): 0.628
phosphorylation enrichment (Fer (mouse)): 0.458

SH2 binding enrichment (Grb2 SH2): 0.84
SH2 binding enrichment (c-Src SH2): 0.609
SH2 binding enrichment (SHP2-C SH2): 0.682
Sequence: AQQPIYVRVEG [NLRP7_Y318]
phosphorylation enrichment (Fes): 0.963
phosphorylation enrichment (c-Abl (mouse)): 1.54
phosphorylation enrichment (MERTK): 2.46
phosphorylation enrichment (Jak2): 0.965
phosphorylation enrichment (Hck): 1.74
phosphorylation enrichment (Fyn): 2.18
phosphorylation enrichment (FGFR1): 1.12
phosphorylation enrichment (AncSZ): 0.967
phosphorylation enrichment (EPHB1): 5.88
phosphorylation enrichment (EPHB2): 4.96
phosphorylation enrichment (c-Src): 3.6
phosphorylation enrichment (FGFR3): 0.787
phosphorylation enrichment (Fer (mouse)): 0.707

SH2 binding enrichment (Grb2 SH2): 0.843
SH2 binding enrichment (c-Src SH2): 0.467
SH2 binding enrichment (SHP2-C SH2): 0.64
Sequence: LEVETYRRLLD [KRT12_Y429_I426V]
phosphorylation enrichment (Fes): 0.797
phosphorylation enrichment (c-Abl (mouse)): 0.551
phosphorylation enrichment (MERTK): 0.344
phosphorylation enrichment (Jak2): 0.749
phosphorylation enrichment (Hck): 0.511
phosphorylation enrichment (Fyn): 0.421
phosphorylation enrichment (FGFR1): 0.396
phosphorylation enrichment (AncSZ): 0.676
phosphorylation enrichment (EPHB1): 0.491
phosphorylation enrichment (EPHB2): 0.407
phosphorylation enrichment (c-Src): 0.349
phosphorylation enrichment (FGFR3): 0.625
phosphorylation enrichment (Fer (mouse)): 0.439

SH2 binding enrichment (Grb2 SH2): 1.25
SH2 binding enrichment (c-Src SH2): 0.901
SH2 binding enrichment (SHP2-C SH2): 1.22
Sequence: CLMILYRLKER [PTPRR_Y249]
phosphorylation enrichment (Fes): 1.23
phosphorylation enrichment (c-Abl (mouse)): 0.576
phosphorylation enrichment (MERTK): 0.364
phosphorylation enrichment (Jak2): 0.997
phosphorylation enrichment (Hck): 0.494
phosphorylation enrichment (Fyn): 0.5
phosphorylation enrichment (FGFR1): 0.509
phosphorylation enrichment (AncSZ): 1.26
phosphorylation enrichment (EPHB1): 0.444
phosphorylation enrichment (EPHB2): 0.603
phosphorylation enrichment (c-Src): 0.388
phosphorylation enrichment (FGFR3): 0.809
phosphorylation enrichment (Fer (mouse)): 0.501

SH2 binding enrichment (Grb2 SH2): 0.684
SH2 binding enrichment (c-Src SH2): 0.456
SH2 binding enrichment (SHP2-C SH2): 0.589
Sequence: DYDHSYYFIAT [ESD_Y262_G257D]
phosphorylation enrichment (Fes): 1.13
phosphorylation enrichment (c-Abl (mouse)): 0.877
phosphorylation enrichment (MERTK): 3.77
phosphorylation enrichment (Jak2): 7.22
phosphorylation enrichment (Hck): 2.24
phosphorylation enrichment (Fyn): 1.48
phosphorylation enrichment (FGFR1): 11.7
phosphorylation enrichment (AncSZ): 2.9
phosphorylation enrichment (EPHB1): 5.16
phosphorylation enrichment (EPHB2): 3.27
phosphorylation enrichment (c-Src): 1.81
phosphorylation enrichment (FGFR3): 9.9
phosphorylation enrichment (Fer (mouse)): 1.49

SH2 binding enrichment (Grb2 SH2): 1.05
SH2 binding enrichment (c-Src SH2): 0.883
SH2 binding enrichment (SHP2-C SH2): 0.79
Sequence: HPFHVYPQPGM [BAG3_Y114]
phosphorylation enrichment (Fes): 0.852
phosphorylation enrichment (c-Abl (mouse)): 0.938
phosphorylation enrichment (MERTK): 0.585
phosphorylation enrichment (Jak2): 0.545
phosphorylation enrichment (Hck): 0.684
phosphorylation enrichment (Fyn): 0.804
phosphorylation enrichment (FGFR1): 0.749
phosphorylation enrichment (AncSZ): 0.873
phosphorylation enrichment (EPHB1): 1.02
phosphorylation enrichment (EPHB2): 1.01
phosphorylation enrichment (c-Src): 0.465
phosphorylation enrichment (FGFR3): 0.998
phosphorylation enrichment (Fer (mouse)): 0.499

SH2 binding enrichment (Grb2 SH2): 0.79
SH2 binding enrichment (c-Src SH2): 1.26
SH2 binding enrichment (SHP2-C SH2): 0.808
Sequence: SVVVPYEAPEV [TP53_Y220_P222A]
phosphorylation enrichment (Fes): 1.01
phosphorylation enrichment (c-Abl (mouse)): 0.79
phosphorylation enrichment (MERTK): 0.969
phosphorylation enrichment (Jak2): 0.998
phosphorylation enrichment (Hck): 0.492
phosphorylation enrichment (Fyn): 0.442
phosphorylation enrichment (FGFR1): 0.483
phosphorylation enrichment (AncSZ): 1.2
phosphorylation enrichment (EPHB1): 0.649
phosphorylation enrichment (EPHB2): 0.485
phosphorylation enrichment (c-Src): 0.405
phosphorylation enrichment (FGFR3): 0.8
phosphorylation enrichment (Fer (mouse)): 0.546

SH2 binding enrichment (Grb2 SH2): 0.886
SH2 binding enrichment (c-Src SH2): 0.483
SH2 binding enrichment (SHP2-C SH2): 0.638
Sequence: QHVPDYRQNVY [PCDHGA1_Y890]
phosphorylation enrichment (Fes): 0.829
phosphorylation enrichment (c-Abl (mouse)): 0.66
phosphorylation enrichment (MERTK): 0.478
phosphorylation enrichment (Jak2): 0.76
phosphorylation enrichment (Hck): 0.665
phosphorylation enrichment (Fyn): 0.673
phosphorylation enrichment (FGFR1): 0.497
phosphorylation enrichment (AncSZ): 0.742
phosphorylation enrichment (EPHB1): 0.544
phosphorylation enrichment (EPHB2): 0.563
phosphorylation enrichment (c-Src): 0.723
phosphorylation enrichment (FGFR3): 0.626
phosphorylation enrichment (Fer (mouse)): 0.517

SH2 binding enrichment (Grb2 SH2): 1.18
SH2 binding enrichment (c-Src SH2): 0.795
SH2 binding enrichment (SHP2-C SH2): 1.55
Sequence: IWIFHYAKGQP [MPZ_Y82_S78W]
phosphorylation enrichment (Fes): 1.55
phosphorylation enrichment (c-Abl (mouse)): 1.09
phosphorylation enrichment (MERTK): 0.446
phosphorylation enrichment (Jak2): 1.28
phosphorylation enrichment (Hck): 0.411
phosphorylation enrichment (Fyn): 0.49
phosphorylation enrichment (FGFR1): 0.348
phosphorylation enrichment (AncSZ): 1.26
phosphorylation enrichment (EPHB1): 0.578
phosphorylation enrichment (EPHB2): 0.498
phosphorylation enrichment (c-Src): 0.577
phosphorylation enrichment (FGFR3): 0.768
phosphorylation enrichment (Fer (mouse)): 0.459

SH2 binding enrichment (Grb2 SH2): 0.965
SH2 binding enrichment (c-Src SH2): 3.68
SH2 binding enrichment (SHP2-C SH2): 0.776
Sequence: QGGRRYMMIVD [GAA_Y438]
phosphorylation enrichment (Fes): 0.574
phosphorylation enrichment (c-Abl (mouse)): 0.543
phosphorylation enrichment (MERTK): 0.42
phosphorylation enrichment (Jak2): 0.568
phosphorylation enrichment (Hck): 0.354
phosphorylation enrichment (Fyn): 0.655
phosphorylation enrichment (FGFR1): 0.413
phosphorylation enrichment (AncSZ): 0.606
phosphorylation enrichment (EPHB1): 0.487
phosphorylation enrichment (EPHB2): 0.508
phosphorylation enrichment (c-Src): 0.403
phosphorylation enrichment (FGFR3): 0.367
phosphorylation enrichment (Fer (mouse)): 0.692
